In US20240270841A1 (LG CHEM, published 2024):

Legend:
[1] = target: T1, human LILRB1 protein (LILRB1-His, RnD systems Cat. No. 8989-T2) (human, UniProt Q8NHL6 24-458); assay: SPR (Biacore T200), antibody captured by anti-human IgG (Fc), LILRB1-His injected
T1 construct: Bought protein; also called human LILRB1-His; not shown: His tag
Protocol: The binding affinities of the 93 antibodies, which were selected in Example 1.3, to the antigen, LILRB1, were measured using Biacore T200 (GE healthcare). An anti-human IgG (Fc) antibody (GE healthcare, Cat. No. BR-1008-39, final concentration of 25 μg/mL) was flowed at the flow rate of 5 μL/min for 360 seconds to be immobilized at 5000-7000 RU on Series S Sensor Chip CM5 (GE healthcare, Cat. No. BR-1005-30) using Amine Coupling Kit (GE healthcare, Cat. No. BR-1000-508).

[2] = target: T2, LILRB1 expressed on the surface of human natural killer cell KHYG-1 (human, UniProt Q8NHL6 24-650); assay: flow cytometry (iQue) on KHYG-1 NK cells, antibody 50 ug/mL
T2 construct: whole, on cells; also called LILRB1 on KHYG-1 cells; human NK cells (surface)
T2 sequence (Q8NHL6 24-650): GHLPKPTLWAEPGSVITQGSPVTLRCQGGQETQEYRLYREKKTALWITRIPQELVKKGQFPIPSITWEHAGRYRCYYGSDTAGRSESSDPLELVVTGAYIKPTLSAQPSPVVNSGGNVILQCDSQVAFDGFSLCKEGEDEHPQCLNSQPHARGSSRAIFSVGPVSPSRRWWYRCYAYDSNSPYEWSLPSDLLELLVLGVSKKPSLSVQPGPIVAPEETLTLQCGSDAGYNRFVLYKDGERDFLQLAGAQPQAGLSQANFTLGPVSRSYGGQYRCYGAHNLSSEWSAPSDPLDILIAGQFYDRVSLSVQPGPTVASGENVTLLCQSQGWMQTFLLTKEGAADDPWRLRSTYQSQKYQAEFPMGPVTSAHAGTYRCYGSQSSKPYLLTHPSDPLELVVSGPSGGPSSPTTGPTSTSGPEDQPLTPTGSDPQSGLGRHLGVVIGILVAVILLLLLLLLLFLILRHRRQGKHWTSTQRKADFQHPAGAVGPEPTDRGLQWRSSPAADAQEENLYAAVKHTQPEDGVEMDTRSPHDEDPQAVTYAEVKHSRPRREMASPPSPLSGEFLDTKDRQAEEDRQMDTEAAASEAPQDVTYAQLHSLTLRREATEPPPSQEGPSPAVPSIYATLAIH
Protocol: In order to test whether or not 93 antibodies selected in Example 1.4 bind LILRB1 expressed on surface of immune cells, natural killer cell (NK cell) surface binding assay was performed. A human NK cell, KHYG-1 cell (JCRB) was cultured in RPMI 1640 medium (Gibco) supplemented with 10%(w/v) of FBS (Gibco) and 100 U/mL of interleukin-2 (Novartis). KHYG-1 cells were added to a U-bottom 96-well tissue culture plate (BD Falcon) at the amount of 5×10⁴ cells/well. Each of the selected antibodies was added to the well to the final concentration of 50 μg/mL per well and incubated at 4° C. for 1 hour.
In order to see the level of LILRB1-specific binding of the selected antibodies, a human IgG4 isotype control antibody (Biolegend) was treated in the same manner. After washing with FACS buffer, the cells were treated with an anti-human Fc-biotin antibody (life technologies) and incubated at 4° C. for 1 hour. After washing with FACS buffer, the cells were treated with streptavidin PE (BD Pharmigen) and incubated at 4° C. for 30 minutes. After washing with FACS buffer, the cells were resuspended and subjected to analysis using iQue screener (Sartorius).

T1 sequence (Q8NHL6 24-458 limits assumed): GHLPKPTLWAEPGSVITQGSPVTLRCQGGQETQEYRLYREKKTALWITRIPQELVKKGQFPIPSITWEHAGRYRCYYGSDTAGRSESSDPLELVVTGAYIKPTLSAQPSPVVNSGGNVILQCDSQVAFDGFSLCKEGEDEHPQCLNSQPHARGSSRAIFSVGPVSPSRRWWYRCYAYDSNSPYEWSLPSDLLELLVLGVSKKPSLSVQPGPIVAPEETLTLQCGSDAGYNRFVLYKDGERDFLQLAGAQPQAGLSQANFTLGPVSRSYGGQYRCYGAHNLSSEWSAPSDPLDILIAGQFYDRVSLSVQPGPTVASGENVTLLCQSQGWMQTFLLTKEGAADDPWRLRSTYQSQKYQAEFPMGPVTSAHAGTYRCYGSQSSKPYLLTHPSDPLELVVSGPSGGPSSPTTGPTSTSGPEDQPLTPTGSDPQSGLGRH

Row | Kd [1] [nM] | koff [1] [s⁻¹] | kon [1] [M⁻¹ s⁻¹] | Binder | % of population 2 [2] [%] | Mean Fluorescence Intensity [2]
1 | 3.28 | 0.00142 | 433000 | anti-LILRB1 antibody G1 (antibody, human IgG4 S228P, V domains shown, human IgG4, lambda light chain; also called Antibody clone G1) VH: EVQLVQSGAEVKKPGSSVKVSCKASGGTFSSYGISWVRQAPGQGLEWMGWISAYNGNTNYAQELQGRVTMTTDTSTSTAYMELRSLRSDDTAVYYCARVGVAGKLDYWGQGTLVTVSS VL: SYELTQPPSLSVSPGQTASITCSGYKLGDRYVSWYQQKTGQSPVVVIYKDSQRPSGVPERFSGSNSGNTATLTISGTQAMDEADYYCQAWDSGTGVFGGGTKLTVLG | 56.2 | 321000
2 | 60.7 | 0.00163 | 26800 | anti-LILRB1 antibody E6 (antibody, human IgG4 S228P, V domains shown, human IgG4, lambda light chain; also called Antibody clone E6) VH: QVQLVQSGAEVKKPGASVKVSCKASGYTFTTYDITWVRQAPGQGLEWMGWMNPNSGNSRSAQKFQGRVSMTSDSSISTAYMELSSLRSEDTAVYYCATGDYSGVVLTATALDYWGQGTLVTVSS VL: NFMLTQPHSVSESPGKTVTLSCTGSSGNIASNYVQWYQHRPGSAPTTVIYRDDQRPSGVPDRFSGSIDSSSNSASLTISGLRPEDEADYYCQSYDSSSWVFGGGTKLTVLG |  | 
3 | 101 | 0.0035 | 34600 | anti-LILRB1 antibody E3 (antibody, human IgG4 S228P, human IgG4, lambda light chain; also called Antibody clone E3) heavy: not shown light: SYELTQDPAVSVALGQTVRITCQGDSLRNFYASWYQQKSGQAPVLVMYGKNNRPSGIPDRFSGSTSGNTASLTITGAQAEDEADYYCNSRDSSGSHLTGVFGGGTKVTVLGQPAAAPSVTLFPPSSEELQANKATLVCLISDFYPGAVTVAWKADSSPVKAGVETTTPSKQSNNKYAASSYLSLTPEQWKSHRSYSCQVTHEGSTVEKTVAPTECS | 40.2 | 269000
4 | 72.5 | 0.000773 | 10600 | anti-LILRB1 antibody E4 (antibody, human IgG4 S228P, V domains shown, human IgG4, lambda light chain; also called Antibody clone E4) VH: QVQLVQSGAEVKKPGSSVKVSCKASGGTFSSYTISWVRQAPGQGLEWMGRIIPILGIANYAQKFQGRVTMTRDMSTDTAYMELSSLTYDDTAVYFCVRGPSLNYAGYFDNWGQGTLVTVSS VL: NFMLTQPHSVSESPGKTVTISCTRSSGSIASNYVQWYQQRPGSSPTTVIYEDNQRPSGVPDRFSGSIDSSSNSASLTISGLKTEDEADYYCQSYDTGNRNYVFGTGTQLTVLG | 43.2 | 272000
5 | 3.46 | 0.000973 | 281000 | anti-LILRB1 antibody F12 (antibody, human IgG4 S228P, V domains shown, human IgG4, lambda light chain; also called Antibody clone F12) VH: QVQLVQSGAEVKKPGESLKISCKGSGYSFTSYWIGWVRQMPGKGLEWMGIIYPGDSDTRYSPSFQGQVTISADKSISTAYLQWSSLKASDTAMYYCASQYYDGGYYMDVWGQGTLVTVSS VL: QSVLTQPASVSGSPGQSITISCAGTSSDIGDYDYVSWYQQHPGKTPKLMIYDVSRRPSGVPDRFSGSKSGNTASLTISGLQTEDEADYYCASYTSSSVVVFGGGTKLTVLG | 38 | 262000

Second part, the binder before the results:

Row | Binder | Kd [1] [nM] | koff [1] [s⁻¹] | kon [1] [M⁻¹ s⁻¹] | % of population 2 [2] [%] | Mean Fluorescence Intensity [2]
6 | anti-LILRB1 antibody B3 (antibody, human IgG4 S228P, V domains shown, human IgG4, kappa light chain; also called Antibody clone B3) VH: EVQLLESGGGLVQPGRSLRLSCAASGFTFDDYAMHWVRQAPGKGLEWVSGISWNSGSIGYADSVKGRFTISRDNSKNTLYLQMNSLRAEDTAVYYCARVGDSSGWSDAFDIWGQGTMVTVSS VL: not shown | 99.8 | 0.00149 | 14900 |  | 
7 | anti-LILRB1 antibody F11 (antibody, human IgG4 S228P, V domains shown, human IgG4, lambda light chain; also called Antibody clone F11) VH: EVQLVESGGGLVQPGGSLKLSCAASGFTFSSYAMSWVRRAPGKGLEWVSTISGSGDSTYYADSVKGRFTISRDNSKNTLYLQMNNLRAEDTAVYYCAREWELGDAFDIWGRGTLVTVSS VL: QSVLTQPPSTSGTPGQTFSIFCSGSSSNIGTNTVNWYQQLPGTAPKLLIYSNDQRPSGVPDRFSGSKSGTSASLAISGLQSEDEADYYCETWDDSLKGPVFGGGTKVTVLG | 2.26 | 0.000615 | 272000 |  | 
8 | anti-LILRB1 antibody A11 (antibody, human IgG4 S228P, V domains shown, human IgG4, kappa light chain; also called Antibody clone A11) VH: EVQLLESGGGLEQPGGFLRLSCAASGFSFTSYAMTWVRQAPGKGLEWVSGISSDGTTTTYADSVRGRFTISRDNAKNTVYLQMNSLRDEDTAVYYCARDQLLGWDALNVWGQGTMVTVSS VL: not shown | 5450 | 0.000981 | 180 |  | 
9 | anti-LILRB1 antibody D3 (antibody, human IgG4 S228P, V domains shown, human IgG4; also called Antibody clone D3) VH: EVQLLESGGGVVQPGRSLRLSCAASGSTFSSYAMSWVRQAPGKGLEWVSAISGSGGSTYYADSVKGRFTISRDNSKNTLYLQMNSLRAEDTAVYYCAKDRGSYGYYYGMDVWGQGTMVTVSS VL: not shown | 180 | 0.000558 | 3110 |  | 
10 | anti-LILRB1 antibody D1 (antibody, human IgG4 S228P, V domains shown, human IgG4, kappa light chain; also called Antibody clone D1) VH: EVQLVQSGAEVKKPGASVKVSCKASGYTFTSYGISWVRQAPGQGLEWMGWINPNSGGTNYAQKFQGRVTMTRDTSISTAYMELSRLRSDDTAVYYCASRGVDEGDYWGQGTMVTVSS VL: ETTLTQSPAFMSATPGDKVNISCKASQDIDDDMNWYQQKPGEAAISIIQEASTLVPGIPPRFSGSGYGTDFTLTINNIESEDAAYYFCLQHDKFPYTFGQGTKLEIKR | 49.3 | 0.00574 | 116000 |  | 
11 | anti-LILRB1 antibody E9 (antibody, human IgG4 S228P, V domains shown, human IgG4, lambda light chain; also called Antibody clone E9) VH: QVQLVESGGGLVQPGRSLRLSCAASGFTFSSYGMHWVRQAPGKGLEWVANIKQDGSEKYYVDSVKGRFTISRDNAKNTLYLQMNSLRAEDTAVYYCAREDRIAAAGMRELDYWGQGTLVTVSS VL: QSELTQLPSASETPGQRVTISCSGSSSNIGNNYVYWYQQLPGTAPKLLIYRNNQRPSGVPDRFSGSKSGTSASLAISGLRSEDEADYYCAAWDDSLSGWVFGGGTKLTVLG | 99.9 | 0.00105 | 10500 |  | 
12 | anti-LILRB1 antibody B9 (antibody, V domains shown, human IgG4, kappa light chain; also called Antibody clone B9) VH: QVQLVESGAEVKKPGSSVKVSCKASGGTFSSYAISWVRQAPGQGLEWMGGIIPIFGTANYAQKFQGRVTITADESTSTAYMELSSLRSEDTAVYYCARGEIAVAQNWDYYGMDVWGQGTLVTVSS VL: DIQMTQSPSSLSASVGDRVTITCRASQSISRYLNWYQQKPGKAPKLLIYGASSLQSGVPSRFSGSGSGTDFTLTISSLQPEDFATYHCQQAYGFPLTLGGGTKVEIKR | 66.1 | 0.000616 | 9320 |  | 
13 | anti-LILRB1 antibody E12 (antibody, human IgG4 S228P, V domains shown, human IgG4, lambda light chain; also called Antibody clone E12) VH: QVQLVESGGGLVQPGGSLRLSCAASGFTFSSYAMHWVRQAPGKGLEWVAVISYDGSNKYYADSVKGRFTISRDNSKNTLYLQMNSLRAEDTAVYYCARERGSGMDVWGQGTLVTVSS VL: SYELTQDPAVSVALGQTVRITCQGDSLRSYYASWYQQKSGQAPVLVIYGKEKRPSGIPDRFSGSSSGNTASLTITGARAEDEADYYCNSRGSTTDYMVFGGGTQLTVLG | 44 | 0.0103 | 233000 |  | 
14 | anti-LILRB1 antibody B12 (antibody, V domains shown, human IgG4, kappa light chain; also called Antibody clone B12) VH: QVQLVQSGAEVKKPGASVKVSCKASGYTFTGYYMHWVRQAPGQGLEWMGWINPNSGGTNYAQKFQGRVTITADESTSTAYMELSSLRSEDTAVYYCTRAGASIVGATALDYWGQGTLVTVSS VL: not shown | 7.84 | 0.00144 | 184000 |  | 
15 | anti-LILRB1 antibody A10 (antibody, human IgG4 S228P, V domains shown, human IgG4, kappa light chain; also called Antibody clone A10) VH: QMQLVQSGAEVKKPGSSVKVSCKASGGTFSSYAISWVRQAPGQGLEWMGGIIPIFGTANYAQKFQGRVTITADKSISTAYMELSSLRSEDTAVYYCARGGLGELDNWFDPWGQGTLVTVSS VL: DIVMTQSPATLSVSPGERATLSCRASQSVSSNLAWYQQKPGQAPRLLIYGASTRATGIPARFSGSGSGTEFTLTISSLQSEDFAVYYCQQYGSSPRMYTFGQGTKVDIKR | 152 | 0.00765 | 50400 | 28.7 | 223000
16 | anti-LILRB1 antibody G9 (antibody, human IgG4 S228P, V domains shown, human IgG4, lambda light chain; also called Antibody clone G9) VH: QVQLVQPGAEVKKPGESLKISCKGSGYSFTSYWIGWVRQMPGKGLEWMGIIYPGDSDTRYSPSFQGQVTISADKSISTAYLQWSSLKASDTAMYYCASQYYDGGYYMDVWGQGTLVTVSS VL: QSALTQPASVSGSPGQSITISCTGSSSDVGGYNYVSWYQQHPGKAPKLMIYDVSNRPSGVSDRFSGSKSGNMASLTISGLQAEDEADYYCSSYTGSSTLDVLFGGGTKLTVLG | 3.05 | 0.000436 | 143000 | 41.3 | 263000
17 | anti-LILRB1 antibody G6 (antibody, human IgG4 S228P, V domains shown, human IgG4, lambda light chain; also called Antibody clone G6) VH: EVQLVESGAEVKKPGASVKVSCKASGYTFTSYYMHWVRQAPGQGLEWMGGIIPIFGTANYAQKFQGRVTITADESTSTAYMELSSLRSEDTAVYYCARGWGYSSSFDYWGQGTTVTVSS VL: SYELTQDPAVSVALGQTVTITCQGDSLRRYYATWYQQKPGQAPVLVIYGQNYRPSGIPDRFSGSNSGTTASLTITGAQAEDEADYYCNSRDSSGNHVVFGGGTKLTVLG | 59.1 | 0.0152 | 258000 |  | 
